For data set [1], the target named is T1, substrate 1 (S1).
T1 chain: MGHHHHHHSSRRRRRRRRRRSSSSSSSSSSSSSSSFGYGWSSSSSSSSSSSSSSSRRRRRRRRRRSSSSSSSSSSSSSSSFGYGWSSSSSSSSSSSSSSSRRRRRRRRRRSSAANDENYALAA

The target of data set [2] is green fluorescent protein (GFP) carrying an ssrA tag at the C-terminus.

B1: Valosin-containing protein-like ATPase of Thermoplasma acidophilum (protein)
chain: MESNNGIILRVAEANSTDPGMSRVRLDESSRRLLDAEIGDVVEIEKVRKTVGRVYRARPEDENKGIVRIDSVMRNNCGASIGDKVKVRKVRTEIAKKVTLAPIIRKDQRLKFGEGIEEYVQRALIRRPMLEQDNISVPGLTLAGQTGLLFKVVKTLPSKVPVEIGEETKIEIREEPASEVLEEVSRISYEDIGGLSEQLGKIREMIELPLKHPELFERLGITPPKGVILYGPPGTGKTLIARAVANESGANFLSINGPEIMSKYYGQSEQKLREIFSKAEETAPSIIFIDEIDSIAPKREEVQGEVERRVVAQLLTLMDGMKERGHVIVIGATNRIDAIDPALRRPGRFDREIEIGVPDRNGRKEILMIHTRNMPLGMSEEEKNKFLEEMADYTYGFVGADLAALVRESAMNALRRYLPEIDLDKPIPTEILEKMVVTEDDFKNALKSIEPSSLREVMVEVPNVHWDDIGGLEDVKREIKETVELPLLKPDVFKRLGIRPSKGFLLYGPPGVGKTLLAKAVATESNANFISIKGPEVLSKWVGESEKAIREIFKKAKQVAPAIVFLDEIDSIAPRRGTTSDSGVTERIVNQLLTSLDGIEVMNGVVVIGATNRPDIMDPALLRAGRFDKLIYIPPPDKEARLSILKVHTKNMPLAPDVDLNDIAQRTEGYVGADLENLCREAGMNAYRENPDATSVSQKNFLDALKTIRPSVDEEVIKFYRTLSETMSKSVSERRKQLQDQGLYL
As to B1, in data set [1], the “Ires % during VAT-assisted translocation through the inactive proteasome-nanopore (VAT 20.0 µM, ATP 2.0 mM)” value is recorded as “Ires %=83.81±0.11” and the “average dwell time of VAT-assisted translocation events (inactive proteasome-nanopore, ATP 2.0 mM)” value is given as “average dwell time is 5.8±3.9 ms”. Also, in data set [2], the “average dwell time of GFP blockades at 6.0 mM ATP” value is listed as “decreased 10-fold to 2.4±1.7 ms” and the “average dwell time of current blockades (inactive proteasome-nanopore, VAT, ATP 2.0 mM)” value is “average dwell time is 22.1±20.2 ms”.
